In patent US20230218738A1 (Pfizer, published 2023):

T1: RSV F protein mutant pXCS845 (RSV A2, UniProt P03420 26-109)
T1 chain 1: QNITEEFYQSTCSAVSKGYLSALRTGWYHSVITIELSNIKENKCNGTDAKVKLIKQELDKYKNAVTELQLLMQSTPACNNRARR
T1 chain 2: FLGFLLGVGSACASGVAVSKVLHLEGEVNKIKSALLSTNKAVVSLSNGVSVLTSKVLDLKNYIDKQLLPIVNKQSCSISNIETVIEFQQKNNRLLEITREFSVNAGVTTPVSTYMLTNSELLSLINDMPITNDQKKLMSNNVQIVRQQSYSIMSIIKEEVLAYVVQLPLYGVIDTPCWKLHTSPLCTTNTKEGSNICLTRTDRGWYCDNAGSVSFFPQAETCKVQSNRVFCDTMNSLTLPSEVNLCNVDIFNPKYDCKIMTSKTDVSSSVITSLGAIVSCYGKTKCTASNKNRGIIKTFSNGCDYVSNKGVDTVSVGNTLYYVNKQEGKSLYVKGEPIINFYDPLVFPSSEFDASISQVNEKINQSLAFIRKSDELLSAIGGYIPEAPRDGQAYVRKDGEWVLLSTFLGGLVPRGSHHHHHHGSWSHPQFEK

T2: RSV F protein mutant pXCS880 (RSV A2, UniProt P03420 26-109)
T2 chain 1: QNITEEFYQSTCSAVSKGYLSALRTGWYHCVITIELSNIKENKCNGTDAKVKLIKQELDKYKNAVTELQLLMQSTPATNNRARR
T2 chain 2: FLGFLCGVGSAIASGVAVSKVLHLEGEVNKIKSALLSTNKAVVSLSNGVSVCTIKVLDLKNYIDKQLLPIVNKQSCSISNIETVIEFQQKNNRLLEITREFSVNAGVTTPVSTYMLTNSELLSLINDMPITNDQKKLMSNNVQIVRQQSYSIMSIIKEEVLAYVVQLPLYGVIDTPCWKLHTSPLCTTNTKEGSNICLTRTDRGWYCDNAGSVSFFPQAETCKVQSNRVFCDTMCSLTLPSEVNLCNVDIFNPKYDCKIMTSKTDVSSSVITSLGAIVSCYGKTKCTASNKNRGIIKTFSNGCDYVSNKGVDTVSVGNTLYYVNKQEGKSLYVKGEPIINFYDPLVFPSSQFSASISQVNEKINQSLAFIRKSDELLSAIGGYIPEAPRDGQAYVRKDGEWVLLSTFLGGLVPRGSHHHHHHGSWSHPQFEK

T3: RSV F protein mutant pXCS882 (RSV A2, UniProt P03420 26-109)
T3 chain 1: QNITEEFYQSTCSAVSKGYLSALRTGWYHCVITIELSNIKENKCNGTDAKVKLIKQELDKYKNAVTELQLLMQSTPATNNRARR
T3 chain 2: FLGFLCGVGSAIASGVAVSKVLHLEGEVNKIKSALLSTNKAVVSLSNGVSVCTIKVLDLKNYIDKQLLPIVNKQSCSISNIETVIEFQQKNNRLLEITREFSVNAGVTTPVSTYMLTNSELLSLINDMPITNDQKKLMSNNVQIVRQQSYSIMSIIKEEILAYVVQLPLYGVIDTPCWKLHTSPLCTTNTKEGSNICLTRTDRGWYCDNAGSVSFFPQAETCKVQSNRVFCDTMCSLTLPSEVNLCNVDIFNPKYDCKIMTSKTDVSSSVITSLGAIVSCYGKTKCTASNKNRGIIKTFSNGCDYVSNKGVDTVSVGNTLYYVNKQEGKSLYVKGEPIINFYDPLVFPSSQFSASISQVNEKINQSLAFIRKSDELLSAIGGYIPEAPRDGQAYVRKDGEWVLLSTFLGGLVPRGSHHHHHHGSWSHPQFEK

T4: RSV F protein mutant pXCS881 (RSV A2, UniProt P03420 26-109)
T4 chain 1: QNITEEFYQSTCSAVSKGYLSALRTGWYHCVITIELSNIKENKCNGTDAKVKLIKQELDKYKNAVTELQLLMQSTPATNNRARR
T4 chain 2: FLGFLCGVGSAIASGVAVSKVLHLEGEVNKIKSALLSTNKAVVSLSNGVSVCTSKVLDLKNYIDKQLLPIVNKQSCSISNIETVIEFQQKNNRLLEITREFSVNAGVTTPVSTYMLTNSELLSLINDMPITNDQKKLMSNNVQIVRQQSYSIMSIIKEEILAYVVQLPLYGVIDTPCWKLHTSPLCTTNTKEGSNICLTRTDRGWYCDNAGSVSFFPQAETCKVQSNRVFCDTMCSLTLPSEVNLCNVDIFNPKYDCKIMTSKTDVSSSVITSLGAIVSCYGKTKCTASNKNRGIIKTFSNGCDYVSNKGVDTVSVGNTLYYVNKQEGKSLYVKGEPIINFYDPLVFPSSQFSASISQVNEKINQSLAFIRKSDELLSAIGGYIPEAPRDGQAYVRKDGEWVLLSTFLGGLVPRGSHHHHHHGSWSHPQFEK


What was measured:
Assay in all cases: BLI (Octet), F on anti-HIS tip, 20 nM mAb
[1] = biological target: RSV F protein mutant pXCS847 (RSV A2, UniProt P03420 26-109)
[2] = biological target: RSV F protein mutant pXCS779 (RSV A2, UniProt P03420 26-109)
[3] = biological target: RSV F protein mutant pXCS782 (RSV A2, UniProt P03420 26-109)
[4] = biological target: T1, RSV F protein mutant pXCS845
[5] = biological target: RSV F protein mutant pXCS848 (RSV A2, UniProt P03420 26-109)
[6] = biological target: RSV F protein mutant pXCS787 (RSV A2, UniProt P03420 26-109)
[7] = biological target: T2, RSV F protein mutant pXCS880
[8] = biological target: T3, RSV F protein mutant pXCS882
[9] = biological target: T4, RSV F protein mutant pXCS881
[10] = biological target: RSV F protein mutant pXCS781 (RSV A2, UniProt P03420 26-109)

Binder	Response (nm shift) [1] [nm]	Response (nm shift) [2] [nm]	Response (nm shift) [3] [nm]	Response (nm shift) [4] [nm]	Response (nm shift) [5] [nm]	Response (nm shift) [6] [nm]	Response (nm shift) [7] [nm]	Response (nm shift) [8] [nm]	Response (nm shift) [9] [nm]	Response (nm shift) [10] [nm]
AM22 (antibody, V domains shown) VH: QVQLVQSGAEVKKPGATVKVSCKISGHTLIKLSIHWVRQAPGKGLEWMGGYEGEVDEIFYAQKFQHRLTVIADTATDTVYMELGRLTSDDTAVYFCGTLGVTVTEAGLGIDDYWGQGTLVTVSS VL: EIVLTQSPGTLSLSPGERATLSCRASQIVSRNHLAWYQQKPGQAPRLLIFGASSRATGIPVRFSGSGSGTDFTLTINGLAPEDFAVYYCLSSDSSIFTFGPGTKVDFK	0.484	0.125	0.222	0.314	0.109	0.225	0.213	0.219	0.178	0.423
MPE8 (antibody, V domains shown, also called MPEG) VH: EVQLVESGGGLVKPGGSLRLSCAASGFTFSSYSMNWVRQAPGKGLEWVSSISASSSYSDYADSAKGRFTISRDNAKTSLFLQMNSLRAEDTAIYFCARARATGYSSITPYFDIWGQGTLVTVSS VL: QSVVTQTPSVSGAPGQRVTISCTGSSSNIGAGYDVHWYQQLPGTAPKLLIYDNNNRPSGVPDRFSASKSGTSASLAITGLQAEDEADYYCQSYDRNLSGVFGTGTKVTVL	0.871	0.232	0.513	0.699	0.266	0.621	0.684	0.691	0.763	0.876
